Assay results from US20230051701A1 (Bristol-Myers Squibb, published 2023).

T1: N-terminal domain of hCD73 (residues 26-336 of human CD73), His-tagged (human, UniProt P21589 26-336)
T1 construct: also called N-hCD73; N-hCD73-his
T1 sequence: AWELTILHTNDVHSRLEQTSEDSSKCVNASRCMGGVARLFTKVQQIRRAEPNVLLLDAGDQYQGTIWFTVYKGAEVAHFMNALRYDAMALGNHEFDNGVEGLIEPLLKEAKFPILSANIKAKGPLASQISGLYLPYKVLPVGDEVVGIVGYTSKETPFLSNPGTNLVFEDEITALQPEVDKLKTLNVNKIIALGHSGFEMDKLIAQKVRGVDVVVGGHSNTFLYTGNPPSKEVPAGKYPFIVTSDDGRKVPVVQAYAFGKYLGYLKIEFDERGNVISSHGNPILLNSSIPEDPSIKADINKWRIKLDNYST

T2: rhCD73 bound to his-tag magnet beads (human, UniProt P21589 27-549, limits assumed)
T2 sequence: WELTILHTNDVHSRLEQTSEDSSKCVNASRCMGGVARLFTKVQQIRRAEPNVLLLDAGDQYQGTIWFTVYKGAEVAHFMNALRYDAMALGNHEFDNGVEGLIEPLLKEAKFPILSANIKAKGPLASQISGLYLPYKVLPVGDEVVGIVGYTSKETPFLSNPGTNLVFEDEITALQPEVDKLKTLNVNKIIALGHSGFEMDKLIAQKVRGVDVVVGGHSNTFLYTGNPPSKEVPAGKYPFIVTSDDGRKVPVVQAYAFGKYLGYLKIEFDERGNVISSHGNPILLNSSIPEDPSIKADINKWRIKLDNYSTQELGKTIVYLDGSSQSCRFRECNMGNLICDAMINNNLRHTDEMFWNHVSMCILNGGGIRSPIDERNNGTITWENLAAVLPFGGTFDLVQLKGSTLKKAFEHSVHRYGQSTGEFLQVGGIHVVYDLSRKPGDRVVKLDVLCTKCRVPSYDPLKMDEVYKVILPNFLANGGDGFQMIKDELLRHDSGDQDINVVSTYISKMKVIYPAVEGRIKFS

T3: human CD73 on cells (Calu6, NCI-H292, SK-MEL-24, human tumor cell lines, human B and T cells) (human, UniProt P21589 27-549)
T3 sequence: T2 sequence

T4: rat CD73 (rat, UniProt P21588 29-551, limits assumed)
T4 sequence (looked up): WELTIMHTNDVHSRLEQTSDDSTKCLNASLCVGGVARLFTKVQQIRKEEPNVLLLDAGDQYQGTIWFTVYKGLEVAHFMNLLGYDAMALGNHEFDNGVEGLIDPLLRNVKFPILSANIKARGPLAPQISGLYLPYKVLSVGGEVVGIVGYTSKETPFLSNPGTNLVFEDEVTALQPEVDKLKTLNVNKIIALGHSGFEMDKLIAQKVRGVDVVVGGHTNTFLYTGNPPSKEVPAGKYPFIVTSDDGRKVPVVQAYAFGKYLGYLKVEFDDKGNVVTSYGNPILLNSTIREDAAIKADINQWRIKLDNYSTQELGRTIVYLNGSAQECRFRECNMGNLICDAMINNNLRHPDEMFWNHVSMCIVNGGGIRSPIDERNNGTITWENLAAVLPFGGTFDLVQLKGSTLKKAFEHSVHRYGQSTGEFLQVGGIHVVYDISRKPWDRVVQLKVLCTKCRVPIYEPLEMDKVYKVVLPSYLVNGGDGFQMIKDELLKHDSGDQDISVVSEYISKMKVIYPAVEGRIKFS

T5: mouse CD73 (mouse, UniProt Q61503 29-551, limits assumed)
T5 sequence (looked up): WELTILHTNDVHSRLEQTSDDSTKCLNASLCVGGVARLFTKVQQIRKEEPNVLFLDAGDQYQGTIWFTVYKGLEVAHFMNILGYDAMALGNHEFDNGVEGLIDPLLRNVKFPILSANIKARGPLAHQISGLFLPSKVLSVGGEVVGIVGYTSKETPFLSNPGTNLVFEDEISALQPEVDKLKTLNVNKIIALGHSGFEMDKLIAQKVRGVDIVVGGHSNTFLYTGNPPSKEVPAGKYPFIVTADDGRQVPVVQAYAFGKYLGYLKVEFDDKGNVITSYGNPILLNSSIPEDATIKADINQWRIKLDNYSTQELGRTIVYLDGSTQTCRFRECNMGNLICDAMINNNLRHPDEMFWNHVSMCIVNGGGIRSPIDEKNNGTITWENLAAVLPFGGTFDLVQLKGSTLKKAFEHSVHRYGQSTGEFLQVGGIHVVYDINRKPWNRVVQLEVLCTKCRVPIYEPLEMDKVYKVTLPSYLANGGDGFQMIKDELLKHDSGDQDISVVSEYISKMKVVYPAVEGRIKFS

B1: CD73.10-IgG2-C219S (antibody)
heavy: QVQLVESGGGVVQPGRSLRLSCAASGFTFSNYGMHWVRQAPGKGLEWVAVIWYDESNKYYPDSVKGRFTISRDNSKNTLYLQMNSLRAEDTAVYYCARGGSSWYPDSFDIWGQGTMVTVSSASTKGPSVFPLAPCSRSTSESTAALGCLVKDYFPEPVTVSWNSGALTSGVHTFPAVLQSSGLYSLSSVVTVPSSNFGTQTYTCNVDHKPSNTKVDKTVERKSCVECPPCPAPPVAGPSVFLFPPKPKDTLMISRTPEVTCVVVDVSHEDPEVQFNWYVDGVEVHNAKTKPREEQFNSTFRVVSVLTVVHQDWLNGKEYKCKVSNKGLPAPIEKTISKTKGQPREPQVYTLPPSREEMTKNQVSLTCLVKGFYPSDIAVEWESNGQPENNYKTTPPMLDSDGSFFLYSKLTVDKSRWQQGNVFSCSVMHEALHNHYTQKSLSLSPG
light: not shown
notes: also called CD73.10-IgG2CS; CD73.10-IgG2S
B2: CD73.4-IgG2-C219S-IgG1.1f (antibody)
heavy: QVQLVESGGGVVQPGRSLRLSCAASGFTFSNYGMHWVRQAPGKGLEWVAVILYDGSNKYYPDSVKGRFTISRDNSKNTLYLQMNSLRAEDTAVYYCARGGSSWYPDSFDIWGQGTMVTVSSASTKGPSVFPLAPCSRSTSESTAALGCLVKDYFPEPVTVSWNSGALTSGVHTFPAVLQSSGLYSLSSVVTVPSSNFGTQTYTCNVDHKPSNTKVDKTVERKSCVECPPCPAPPVAGPSVFLFPPKPKDTLMISRTPEVTCVVVDVSHEDPEVKFNWYVDGVEVHNAKTKPREEQYNSTYRVVSVLTVLHQDWLNGKEYKCKVSNKALPSSIEKTISKAKGQPREPQVYTLPPSREEMTKNQVSLTCLVKGFYPSDIAVEWESNGQPENNYKTTPPVLDSDGSFFLYSKLTVDKSRWQQGNVFSCSVMHEALHNHYTQKSLSLSPG
light: not shown
modifications: 94% of the N-terminal glutamine was pyro-Q; 97% of the heavy chains lacked the C-terminal lysine
notes: also called CD73.4-IgG2CS-IgG1.1f

Columns and labels:
[1] = target: T1, N-terminal domain of hCD73 (residues …); experiment: SPR, comparison of all IgG2 molecules
Method: For these experiments, protein A (Pierce) was immobilized to a density of 3000 — 4000 RU on flow cells 1-4 of a CM5 sensor chip (GE Healthcare) using standard ethyl(dimethylaminopropyl) carbodiimide (EDC)/N-hydroxysuccinimide (NHS) chemistry, with ethanolamine blocking, in a running buffer of 0.01 M HEPES pH 7.4, 0.15 M NaCl, 3 mM EDTA, 0.005% v/v tween 20. […] The running buffer for the kinetic experiments was 10 mM sodium phosphate, 130 mM sodium chloride, 0.05% tween 20, pH 7.1. The surfaces were regenerated after each cycle using two 30 s pulses of 10 mM glycine pH 1.5 at a flow rate of 30 μl/min. Sensogram data was double-referenced and then fitted to a 1:1 Langmuir model using Biacore T100 evaluation software v2.0.4, to determine the association rate constant (ka), the dissociation rate constant (kd), and the equilibrium dissociation constant (KD).

[2] = target: T2, rhCD73 bound to his-tag magnet beads; experiment: cell-based or functional assay
[3] = target: T3, human CD73 on cells (Calu6, NCI-H292, …); experiment: cell-based or functional assay
[4] = target: T4, rat CD73; experiment: SPR study of Example 3A; format not described
[5] = target: T5, mouse CD73; experiment: SPR study of Example 3A; format not described

Binder	fold lower affinity than 11F11 or CD73.4 [1] [fold]	EC50, recombinant human CD73 enzyme inhibition assay [2] [nM]	EC50, blockade of endogenous cellular CD73 in Calu6 [3] [nM]	EC50 for blockade of endogenous cellular CD73 in Calu6 [3] [nM]	binding result [4]	binding result [5]
B1	~10					
B2		2.9 to 3.1	0.31 to 0.48	0.31 to 0.48	no binding	no binding
